*1 amine or outer side, *2 acyl side, *3 side chain or, on linkers, in order; H or OH if unused. Side-chain parts run from the residue outwards. The star is where a group is joined. C18 diacid = O=C(O)CCCCCCCCCCCCCCCCC(=O)*; γGlu = O=C(O)[C@H](CCC(=O)[*:2])N[*:1]; Isovaleryl = CC(C)CC(=O)*; AEEA = NCCOCCOCC(=O)O

For orientation: Ki means the equilibrium dissociation constant of an inhibitor or competing ligand from its target. A high value points to weaker binding.

First the molecules themselves.
T1: human neuropeptide Y2 receptor (human, UniProt P49146 1-381)
T1 construct: whole, on cells; also called hNPY2 receptor; hNPY2-R
T1 sequence (looked up): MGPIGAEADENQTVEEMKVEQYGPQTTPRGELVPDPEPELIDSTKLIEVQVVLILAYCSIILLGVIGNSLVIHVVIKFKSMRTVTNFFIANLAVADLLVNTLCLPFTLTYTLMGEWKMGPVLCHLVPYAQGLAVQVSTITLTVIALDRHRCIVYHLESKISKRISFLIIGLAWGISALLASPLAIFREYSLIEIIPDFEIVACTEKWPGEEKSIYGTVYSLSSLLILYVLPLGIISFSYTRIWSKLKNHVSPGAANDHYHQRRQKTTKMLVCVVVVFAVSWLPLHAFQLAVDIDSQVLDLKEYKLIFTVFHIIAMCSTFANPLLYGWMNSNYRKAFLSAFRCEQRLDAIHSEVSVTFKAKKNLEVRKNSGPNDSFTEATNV

B1: Compound 122 (peptide)
peptide: Isovaleryl-APEK([AEEA-AEEA-γGlu-C18 diacid])PEEDAAPEELQRYYVSLRHYYNWLTRQRY-NH2
SMILES: CC(C)CC(=O)N[C@@H](C)C(=O)N1CCC[C@H]1C(=O)N[C@@H](CCC(=O)O)C(=O)N[C@@H](CCCCNC(=O)COCCOCCNC(=O)COCCOCCNC(=O)CC[C@H](NC(=O)CCCCCCCCCCCCCCCCC(=O)O)C(=O)O)C(=O)N1CCC[C@H]1C(=O)N[C@@H](CCC(=O)O)C(=O)N[C@@H](CCC(=O)O)C(=O)N[C@@H](CC(=O)O)C(=O)N[C@@H](C)C(=O)N[C@@H](C)C(=O)N1CCC[C@H]1C(=O)N[C@@H](CCC(=O)O)C(=O)N[C@@H](CCC(=O)O)C(=O)N[C@@H](CC(C)C)C(=O)N[C@@H](CCC(N)=O)C(=O)N[C@@H](CCCNC(=N)N)C(=O)N[C@@H](Cc1ccc(O)cc1)C(=O)N[C@@H](Cc1ccc(O)cc1)C(=O)N[C@H](C(=O)N[C@@H](CO)C(=O)N[C@@H](CC(C)C)C(=O)N[C@@H](CCCNC(=N)N)C(=O)N[C@@H](Cc1c[nH]cn1)C(=O)N[C@@H](Cc1ccc(O)cc1)C(=O)N[C@@H](Cc1ccc(O)cc1)C(=O)N[C@@H](CC(N)=O)C(=O)N[C@@H](Cc1c[nH]c2ccccc12)C(=O)N[C@@H](CC(C)C)C(=O)N[C@H](C(=O)N[C@@H](CCCNC(=N)N)C(=O)N[C@@H](CCC(N)=O)C(=O)N[C@@H](CCCNC(=N)N)C(=O)N[C@@H](Cc1ccc(O)cc1)C(N)=O)[C@@H](C)O)C(C)C
B2: Compound 130 (peptide)
peptide: Isovaleryl-APEK([AEEA-AEEA-γGlu-C18 diacid])PEEDTSAEELQRYYVSLRHYYNWLTRQRY-NH2
SMILES: CC(C)CC(=O)N[C@@H](C)C(=O)N1CCC[C@H]1C(=O)N[C@@H](CCC(=O)O)C(=O)N[C@@H](CCCCNC(=O)COCCOCCNC(=O)COCCOCCNC(=O)CC[C@H](NC(=O)CCCCCCCCCCCCCCCCC(=O)O)C(=O)O)C(=O)N1CCC[C@H]1C(=O)N[C@@H](CCC(=O)O)C(=O)N[C@@H](CCC(=O)O)C(=O)N[C@@H](CC(=O)O)C(=O)N[C@H](C(=O)N[C@@H](CO)C(=O)N[C@@H](C)C(=O)N[C@@H](CCC(=O)O)C(=O)N[C@@H](CCC(=O)O)C(=O)N[C@@H](CC(C)C)C(=O)N[C@@H](CCC(N)=O)C(=O)N[C@@H](CCCNC(=N)N)C(=O)N[C@@H](Cc1ccc(O)cc1)C(=O)N[C@@H](Cc1ccc(O)cc1)C(=O)N[C@H](C(=O)N[C@@H](CO)C(=O)N[C@@H](CC(C)C)C(=O)N[C@@H](CCCNC(=N)N)C(=O)N[C@@H](Cc1c[nH]cn1)C(=O)N[C@@H](Cc1ccc(O)cc1)C(=O)N[C@@H](Cc1ccc(O)cc1)C(=O)N[C@@H](CC(N)=O)C(=O)N[C@@H](Cc1c[nH]c2ccccc12)C(=O)N[C@@H](CC(C)C)C(=O)N[C@H](C(=O)N[C@@H](CCCNC(=N)N)C(=O)N[C@@H](CCC(N)=O)C(=O)N[C@@H](CCCNC(=N)N)C(=O)N[C@@H](Cc1ccc(O)cc1)C(N)=O)[C@@H](C)O)C(C)C)[C@@H](C)O
B3: Compound 124 (peptide)
peptide: Isovaleryl-APEK([AEEA-AEEA-γGlu-C18 diacid])PEEDAAPEEIQRYYVSLRHYYNWLTRQRY-NH2
SMILES: CC[C@H](C)[C@H](NC(=O)[C@H](CCC(=O)O)NC(=O)[C@H](CCC(=O)O)NC(=O)[C@@H]1CCCN1C(=O)[C@H](C)NC(=O)[C@H](C)NC(=O)[C@H](CC(=O)O)NC(=O)[C@H](CCC(=O)O)NC(=O)[C@H](CCC(=O)O)NC(=O)[C@@H]1CCCN1C(=O)[C@H](CCCCNC(=O)COCCOCCNC(=O)COCCOCCNC(=O)CC[C@H](NC(=O)CCCCCCCCCCCCCCCCC(=O)O)C(=O)O)NC(=O)[C@H](CCC(=O)O)NC(=O)[C@@H]1CCCN1C(=O)[C@H](C)NC(=O)CC(C)C)C(=O)N[C@@H](CCC(N)=O)C(=O)N[C@@H](CCCNC(=N)N)C(=O)N[C@@H](Cc1ccc(O)cc1)C(=O)N[C@@H](Cc1ccc(O)cc1)C(=O)N[C@H](C(=O)N[C@@H](CO)C(=O)N[C@@H](CC(C)C)C(=O)N[C@@H](CCCNC(=N)N)C(=O)N[C@@H](Cc1c[nH]cn1)C(=O)N[C@@H](Cc1ccc(O)cc1)C(=O)N[C@@H](Cc1ccc(O)cc1)C(=O)N[C@@H](CC(N)=O)C(=O)N[C@@H](Cc1c[nH]c2ccccc12)C(=O)N[C@@H](CC(C)C)C(=O)N[C@H](C(=O)N[C@@H](CCCNC(=N)N)C(=O)N[C@@H](CCC(N)=O)C(=O)N[C@@H](CCCNC(=N)N)C(=O)N[C@@H](Cc1ccc(O)cc1)C(N)=O)[C@@H](C)O)C(C)C
B4: Compound 132 (peptide)
peptide: Isovaleryl-APEK([AEEA-AEEA-γGlu-C18 diacid])PEEDASPEELQKYYVTLRHYYNWLTRQRY-NH2
SMILES: CC(C)CC(=O)N[C@@H](C)C(=O)N1CCC[C@H]1C(=O)N[C@@H](CCC(=O)O)C(=O)N[C@@H](CCCCNC(=O)COCCOCCNC(=O)COCCOCCNC(=O)CC[C@H](NC(=O)CCCCCCCCCCCCCCCCC(=O)O)C(=O)O)C(=O)N1CCC[C@H]1C(=O)N[C@@H](CCC(=O)O)C(=O)N[C@@H](CCC(=O)O)C(=O)N[C@@H](CC(=O)O)C(=O)N[C@@H](C)C(=O)N[C@@H](CO)C(=O)N1CCC[C@H]1C(=O)N[C@@H](CCC(=O)O)C(=O)N[C@@H](CCC(=O)O)C(=O)N[C@@H](CC(C)C)C(=O)N[C@@H](CCC(N)=O)C(=O)N[C@@H](CCCCN)C(=O)N[C@@H](Cc1ccc(O)cc1)C(=O)N[C@@H](Cc1ccc(O)cc1)C(=O)N[C@H](C(=O)N[C@H](C(=O)N[C@@H](CC(C)C)C(=O)N[C@@H](CCCNC(=N)N)C(=O)N[C@@H](Cc1c[nH]cn1)C(=O)N[C@@H](Cc1ccc(O)cc1)C(=O)N[C@@H](Cc1ccc(O)cc1)C(=O)N[C@@H](CC(N)=O)C(=O)N[C@@H](Cc1c[nH]c2ccccc12)C(=O)N[C@@H](CC(C)C)C(=O)N[C@H](C(=O)N[C@@H](CCCNC(=N)N)C(=O)N[C@@H](CCC(N)=O)C(=O)N[C@@H](CCCNC(=N)N)C(=O)N[C@@H](Cc1ccc(O)cc1)C(N)=O)[C@@H](C)O)[C@@H](C)O)C(C)C
B5: Compound 126 (peptide)
peptide: Isovaleryl-APAK([AEEA-AEEA-γGlu-C18 diacid])PEEDSSPEELQRYYVSLRHYYNWLTRQRY-NH2
SMILES: CC(C)CC(=O)N[C@@H](C)C(=O)N1CCC[C@H]1C(=O)N[C@@H](C)C(=O)N[C@@H](CCCCNC(=O)COCCOCCNC(=O)COCCOCCNC(=O)CC[C@H](NC(=O)CCCCCCCCCCCCCCCCC(=O)O)C(=O)O)C(=O)N1CCC[C@H]1C(=O)N[C@@H](CCC(=O)O)C(=O)N[C@@H](CCC(=O)O)C(=O)N[C@@H](CC(=O)O)C(=O)N[C@@H](CO)C(=O)N[C@@H](CO)C(=O)N1CCC[C@H]1C(=O)N[C@@H](CCC(=O)O)C(=O)N[C@@H](CCC(=O)O)C(=O)N[C@@H](CC(C)C)C(=O)N[C@@H](CCC(N)=O)C(=O)N[C@@H](CCCNC(=N)N)C(=O)N[C@@H](Cc1ccc(O)cc1)C(=O)N[C@@H](Cc1ccc(O)cc1)C(=O)N[C@H](C(=O)N[C@@H](CO)C(=O)N[C@@H](CC(C)C)C(=O)N[C@@H](CCCNC(=N)N)C(=O)N[C@@H](Cc1c[nH]cn1)C(=O)N[C@@H](Cc1ccc(O)cc1)C(=O)N[C@@H](Cc1ccc(O)cc1)C(=O)N[C@@H](CC(N)=O)C(=O)N[C@@H](Cc1c[nH]c2ccccc12)C(=O)N[C@@H](CC(C)C)C(=O)N[C@H](C(=O)N[C@@H](CCCNC(=N)N)C(=O)N[C@@H](CCC(N)=O)C(=O)N[C@@H](CCCNC(=N)N)C(=O)N[C@@H](Cc1ccc(O)cc1)C(N)=O)[C@@H](C)O)C(C)C
B6: Compound 131 (peptide)
peptide: Isovaleryl-APEK([AEEA-AEEA-γGlu-C18 diacid])AEEDASPEELQRYYVELRHYYNWLTRQRY-NH2
SMILES: CC(C)CC(=O)N[C@@H](C)C(=O)N1CCC[C@H]1C(=O)N[C@@H](CCC(=O)O)C(=O)N[C@@H](CCCCNC(=O)COCCOCCNC(=O)COCCOCCNC(=O)CC[C@H](NC(=O)CCCCCCCCCCCCCCCCC(=O)O)C(=O)O)C(=O)N[C@@H](C)C(=O)N[C@@H](CCC(=O)O)C(=O)N[C@@H](CCC(=O)O)C(=O)N[C@@H](CC(=O)O)C(=O)N[C@@H](C)C(=O)N[C@@H](CO)C(=O)N1CCC[C@H]1C(=O)N[C@@H](CCC(=O)O)C(=O)N[C@@H](CCC(=O)O)C(=O)N[C@@H](CC(C)C)C(=O)N[C@@H](CCC(N)=O)C(=O)N[C@@H](CCCNC(=N)N)C(=O)N[C@@H](Cc1ccc(O)cc1)C(=O)N[C@@H](Cc1ccc(O)cc1)C(=O)N[C@H](C(=O)N[C@@H](CCC(=O)O)C(=O)N[C@@H](CC(C)C)C(=O)N[C@@H](CCCNC(=N)N)C(=O)N[C@@H](Cc1c[nH]cn1)C(=O)N[C@@H](Cc1ccc(O)cc1)C(=O)N[C@@H](Cc1ccc(O)cc1)C(=O)N[C@@H](CC(N)=O)C(=O)N[C@@H](Cc1c[nH]c2ccccc12)C(=O)N[C@@H](CC(C)C)C(=O)N[C@H](C(=O)N[C@@H](CCCNC(=N)N)C(=O)N[C@@H](CCC(N)=O)C(=O)N[C@@H](CCCNC(=N)N)C(=O)N[C@@H](Cc1ccc(O)cc1)C(N)=O)[C@@H](C)O)C(C)C

This experiment addresses T1, human neuropeptide Y2 receptor. Kind of experiment: radioligand competition (125I-PYY(1-36)), hNPY2R membranes. Put shortly: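 Commercial human Y2 receptor membranes (0.5 μg protein/well) were incubated with peptide for 2 h at room temperature in 50 mM HEPES, 5 mM MgCl₂, 1 mM CaCl₂, pH 7.4, with 0.2% ovalbumin. Bound radioligand was separated on PEI-soaked GF/C filters and counted by scintillation, and IC₅₀ came from nonlinear sigmoidal regression.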
B1 came in with a Ki of 1.84 nM.
For B2 the value was 11.1 nM; for B3, 0.5 nM.
For B4 the value was 1.18 nM; for B5, 1.18 nM.
In turn, B6 displayed a Ki of 8.54 nM. Against the preceding molecule, the Ki is about 7.2-fold higher.
